This note sets out measurements from US10406197B2, “Substances and methods for the use in prevention and/or treatment in Huntington's disease” (AFFIRIS AG, priority 2014, dated 2019).

The test system of experiment [1] is bone marrow derived primary mouse macrophages. Kind of experiment: In vitro phagocytosis assay. The experiment is classed as cell-based. The note with it: 5 ng/μl antibodies; p9305 beads for PRR13, p9304 beads for C6-17; versus isotype control mouse IgG2a. The method, then: Isolation and in vitro differentiation of macrophages was essentially performed as described e.g. in Zhang et al. 2008 [PMID: 19016445]. In brief, tibia- and femur-derived bone marrow cells from 8 to 12 weeks old BALB/c mice were divided onto 2-3 10 cm-cell culture dishes at a density of 20-30×10^6 cells per dish, differentiated 4 days in RPMI/10% FCS+P/S in the presence of 20 ng/ml M-CSF (RD-Systems, Cat-No: 416-ML-010), redistributed at day 5 into 24-well tissue culture plates at a density of 150.000 cells/well until day 9. 24 hrs before phagocytosis, cells were starved in 500 μl RPMI-media+10% FCS+P/S in absence of M-CSF. […] Antibody-coated fluorescent peptide-beads were subsequently added to differentiated macrophages for 1 hr at 37° C. (in a volume of 200 ul containing 0.5 ug beads/well) allowing for in vitro uptake by phagocytosis. After washing and scraping the cells in ice cold PBS, cells were washed in FACS-Buffer (1×PBS+1% BSA) and analysed for fluorescence signal by standard FACS procedure.

Experiment [2] deals with T1, recombinant 610 amino acids N-terminal Huntingtin fragment (recHTT610) (Homo sapiens, UniProt P42858, DUP37-38).
T1 construct: the N-terminal 610 aminoacids of human Huntingtin protein extended by two C-terminal V5 tags; made in house; host or cells: HEK293 freestyle cells, transient transfection with precHTT610; NP-40 lysate captured on an anti-V5 coated plate
T1 sequence (P42858 with tags, fused parts or gaps DUP37-38): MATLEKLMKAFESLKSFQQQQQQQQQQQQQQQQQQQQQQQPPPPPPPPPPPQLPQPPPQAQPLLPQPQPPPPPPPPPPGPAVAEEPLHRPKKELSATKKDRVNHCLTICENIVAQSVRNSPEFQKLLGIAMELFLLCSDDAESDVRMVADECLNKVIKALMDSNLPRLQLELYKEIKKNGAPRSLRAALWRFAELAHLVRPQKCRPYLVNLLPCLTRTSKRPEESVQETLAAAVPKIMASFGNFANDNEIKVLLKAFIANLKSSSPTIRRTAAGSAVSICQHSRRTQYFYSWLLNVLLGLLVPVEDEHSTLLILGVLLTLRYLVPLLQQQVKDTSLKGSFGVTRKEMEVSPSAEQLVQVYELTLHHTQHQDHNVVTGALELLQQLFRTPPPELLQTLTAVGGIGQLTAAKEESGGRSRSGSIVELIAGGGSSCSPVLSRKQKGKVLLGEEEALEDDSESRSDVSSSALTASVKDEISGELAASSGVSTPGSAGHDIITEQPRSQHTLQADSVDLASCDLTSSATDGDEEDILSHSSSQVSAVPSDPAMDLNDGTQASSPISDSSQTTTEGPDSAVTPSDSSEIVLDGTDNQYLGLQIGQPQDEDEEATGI
Kind of experiment: Protein capture ELISA against recHTT610. It counts as binding. Conditions: recHTT610 capture ELISA of preselected mAB candidates. The protocol: A DNA covering the coding region of the N-terminal 610 aminoacids of human Huntingtin protein extended by two C-terminal V5 tags were synthesized and cloned via XbaI and BamHI restriction sites into eukaryotic expression vector pCDH-EF1-MCS IRES Puro (SBI; CatNr. CD532A1) yielding plasmid precHTT610. Cloning procedures were performed according to standard molecular biology procedures essentially as indicated by manufacturers including restriction digestions and ligation reactions (NEB Quick ligase kit; CatNr. M2200L), bacterial transformation followed by clone selection and analysis. […] Protein concentrations were determined using Qubit (Invitrogen; CatNr.Q32866) according to the manufacturer's instructions.
Binding of antibodies to N-terminal fragment HTT610 was determined by a standard protein capture ELISA procedure using Maxisorb™ ELISA plates (Thermo; CatNr. 439454), coated with 50 μl of a 1:5000 rabbit anti V5 mAB (Sigma, CatNr. V8137), blocking with blocking buffer (PBS, 1% BSA, 0.1% Tween 20), capturing of recombinant Huntingtin from HEK cell extracts (100 ng/μl total protein) followed by incubation with several dilutions of mouse anti HTT sera (1:100; 1:300 and 1:900) or with mAB2166 as reference (diluted 1:2000; Millipore, Cat Nr. MAB2166) for 1 hour at RT. […]

Experiment [3] relates to caspase 6 cleavage of target peptide spanning caspase region 586 of Huntingtin. Nature of the experiment: In vitro caspase 6 cleavage inhibition assay. The experiment is classed as biochemical, human. Conditions: affinity purified polyclonal antibodies 3 ng/μl, mAB C6-17 10 ng/μl; no protection = 100%. The method, then: Caspase 6 inhibition assays were performed using Maxisorb ELISA plates (Thermo; 439454) whereby 50 μl of 20 nM BSA-coupled peptide (as indicated in FIG. 18) was coated for 1 hour at RT followed by a one hour treatment with 150 μl blocking buffer (PBS, 1% BSA, 0.1% Tween 20), incubation for 1 hour at RT with affinity purified polyclonal sera (3 ng/μl) or affinity purified mABs (10 ng/μl) as indicated, respectively. After several washes with washing buffer (PBS, 0.1% BSA, 0.1% Tween 20), 5 U Caspase 6 enzyme (Enzo; BML SE170-5000) diluted in 1× Caspase 6 Buffer (BioVision; 1068-80) was added to each well and incubated for 30 min at 37° C. Quantification of the newly exposed epitope generated by caspase 6 peptide cleavage that reflected the extent of caspase accessibility was performed by ELISA as described in Example 1 using peptide p7564-induced antibodies for detection of the free C-terminal aspartic acid-containing epitope.

Experiment [4] has as its target T2, recombinant Huntingtin fragment with free aspartic acid 586 at the C-terminus (HTT586) (Homo sapiens, UniProt P42858).
T2 construct: recombinant Huntingtin fragment with free aspartic acid 586 at the C-terminus
Nature of the experiment: Protein ELISA with recombinant Huntingtin HTT586 versus HTT610. Conditions: protein capture ELISA, normalized to mAB 2166. It counts as binding. The method, then: Binding of antibodies to N-terminal fragment HTT610 was determined by a standard protein capture ELISA procedure using Maxisorb™ ELISA plates (Thermo; CatNr. 439454), coated with 50 μl of a 1:5000 rabbit anti V5 mAB (Sigma, CatNr. V8137), blocking with blocking buffer (PBS, 1% BSA, 0.1% Tween 20), capturing of recombinant Huntingtin from HEK cell extracts (100 ng/μl total protein) followed by incubation with several dilutions of mouse anti HTT sera (1:100; 1:300 and 1:900) or with mAB2166 as reference (diluted 1:2000; Millipore, Cat Nr. MAB2166) for 1 hour at RT. ELISA incubations, washing and detection procedures were performed according to standard procedures.
FIG. 12: mAB M1D1 specifically recognizes recombinant Huntingtin fragment with free aspartic acid 586 at the C-terminus stronger than uncleaned recHTT610. Protein ELISA (performed as in Example 1) using recombinant Huntingtin with 610 and 586 amino acids length (HTT610 and HTT586, respectively). Values indicate the ratio of the mAB M1D1 signal (OD; protein capture ELISA as explained in Example 1) to the mAB 2166 control antibody signal. Values were normalized to reference mAB 2166 recognizing an internal epitope present in both fragments as protein loading control.
A general note: An ELISA detects its analyte on a solid surface through an enzyme-linked reagent.

Experiment [5] relates to Huntingtin-derived peptides (p6773, p7564, p6776 and caspase region 586 peptides). Nature of the experiment: Peptide ELISA of hybridoma supernatants and monoclonal antibodies. It counts as binding, human. The method, then:
Vaccine-induced immune responses in mice were determined by ELISA using heparin as anticoagulant. ELISA plates (Nunc Maxisorb) were coated with maleimide activated BSA as carrier to which Cystein containing peptides were coupled via stable thioether bonds. For titrations, plasma dilutions were added and peptide-specific antibodies were quantified by biotinylated anti-mouse IgG (Southern Biotech, CatNr. 1034-08) as detection antibody combined with Streptavidin-POD (Roche, CatNr. 1089153) and subsequent color reaction using ABTS. EC50 values were determined using curve fitting with a 4-parameter logistic using GraphPad Prism (GraphPad Software).
For the production and isolation of monoclonal antibodies, the ClonaCell-HY Hybridoma Cloning Kit (STEMCELL technologies, CatNr. 28411) was used according to the instructions of the manufacturer. In brief, hybridoma fusions were performed with myeloma cell line SP2-0 under HAT selection and supernatants were initially screened by peptide ELISA using the immunization peptide, respectively, and an irrelevant control peptide for background determination. […] Selected colonies were picked and analyzed by DNA sequencing on an ABI3130xl Genetic Analyzer.

T2 sequence (P42858 1-584): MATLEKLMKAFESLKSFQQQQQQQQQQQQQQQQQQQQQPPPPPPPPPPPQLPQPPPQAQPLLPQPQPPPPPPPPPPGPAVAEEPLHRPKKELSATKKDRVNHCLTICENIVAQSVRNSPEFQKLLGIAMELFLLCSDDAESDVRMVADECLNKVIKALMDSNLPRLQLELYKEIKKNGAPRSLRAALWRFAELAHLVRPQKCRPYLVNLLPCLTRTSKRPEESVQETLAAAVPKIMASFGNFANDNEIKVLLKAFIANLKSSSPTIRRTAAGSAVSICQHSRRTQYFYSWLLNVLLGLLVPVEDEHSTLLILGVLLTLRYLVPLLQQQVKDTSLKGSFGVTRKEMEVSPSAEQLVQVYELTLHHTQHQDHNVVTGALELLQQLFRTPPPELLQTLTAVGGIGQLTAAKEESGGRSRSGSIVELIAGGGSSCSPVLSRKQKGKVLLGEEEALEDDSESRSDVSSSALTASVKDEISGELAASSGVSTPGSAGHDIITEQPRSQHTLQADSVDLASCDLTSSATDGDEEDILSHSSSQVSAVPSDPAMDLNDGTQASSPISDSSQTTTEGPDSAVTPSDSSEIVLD

B1: C6-17: monoclonal antibody, mouse IgG2a, generated by hybridoma technique using peptide p7543 as immunogen; VH/VL SEQ ID No. 60/61 (antibody)
VH: MGWSCIMLFLLSGTAGVLSEVQLQQSGPELVKPGASVKISCKTSGYTFTEYTMHWVKQSHGKSLEWIGGINPNNGGTRYNQKFKGKATLTVDRSSSTAYMELRSLTSEDSAVYYCASLDGRDYWGQGTTLTVSSAKTTAPSVFPLA
light: MVLMLLLLWVSGTCGDIVMSQSPSSLAVSAGEKVTMSCKSSQSLLNSRTRKNYLAWYQQKPGQSPKLLIYWASTRESGVPDRFTGSGSGTDFTLTISSVQAEDLAVYSCKQSYNLLTFGAGTKLELKRADAAPTVSIFPPSSEQLTSGGASVVCFLNNFYPK
modifications: antibody sequence
For the molecule B1, the “phagocytosis of peptide-coated beads (FACS)” value in experiment [1] is listed as “increased phagocytosis of beads”. Further, the “signal to noise ratio (recHTT610-specific signal : HEK ctrl extracts)” value in experiment [2] is “best signal to noise ratio”. In addition, the “% cleavage of target peptide” value in experiment [3] was “reduce cleavage”.

B2: M1D1: monoclonal antibody, mouse IgM, generated using peptide p7564 as immunogen; VH/VL SEQ ID No. 64/65 (antibody)
VH: MDFGLSWVFFVVFYQGVHCEVQLVESGGGLVQPKGSLKLSCAASGFTFNTYAMNWVRQAPGKGLEWVARIRSKSNNYATYYADSVKDRFTISRDDSQSMLYLQMNNLKTEDTAMYYCVRHGEYGNPWFAYWGQGTLVTVSAESQSFPNVFPL
light: MKLPVRLLVLMFWIPASSSDVVMTQTPLSLPVSLGDQASISCRSSQSLVHSNGNTYLHWYLQKPGQSPKLLIYKVSNRFSGVPDRFSGSGSGTDFTLKISRVEAEDLGVYFCSQSTHVPYTFGGGTKLEIKRADAAPTVSIFPPSSEQLTSGGASVVCFLNNFYPK
modifications: antibody sequence
For B2, the “recognition of HTT586 versus recHTT610 (ratio of mAB signal to mAB 2166 control signal)” value in experiment [4] is recorded as “stronger”. In addition, in experiment [5] (mAB concentration 1 ng/μl, peptides p7564, p7562, p7552, p7541, p7567, p7568, p7605, p6777), the “recognition of caspase region 586 peptides (OD)” value is given as “recognizes Huntingtin peptides from the caspase 6 cleavage region of at least 7AA length containing free C-terminal Aspartic Acid”. Also, the “p7564 to p6776 OD signal ratio” value in experiment [5] (specificity against cleaved peptide p7564, preselected mABs) is reported as “most favorable”.

B3: PRR13: monoclonal antibody, mouse IgG2a, generated by hybridoma technique using peptide p6773 as immunogen; VH/VL SEQ ID No. 62/63 (antibody)
VH: MGWSWVMLFLLSGTGGVLSEVQLQQSAPELVKPGASVKMSCKASGYSFTDFYMKWVKQSHGKGLEWIGDIDPKNGDTFYNQKFKGRATLTVDKSSSTAYMQLNSLTTEDSAVYYCATYYGYTMDYWGQGTSVTVSSAKTTAPSVYPLAPVCGDTTGSSVTLGCLVKGYF
light: MDFQVQIFSFLLISASVIMSRGQIVLTQSPAIMSASLGERVTMTCTASSSVTSSYLHWYQQKPGSSPKLWIYSTSNLASGVPARFSGSGSGTSYSLTISSMEAEDAATYYCHQYRRPPRTFGGGTKLEIKRADAAPTVSIFPPSSEQLTSGGASVVCFLNNFYPR
modifications: antibody sequence
For the molecule B3, the “phagocytosis of peptide-coated beads (FACS)” value in experiment [1] was “increased phagocytosis of beads”.
